The RNAGym collection of RNA variant scans (doi:10.1073/pnas.2313332121)
Variants at the floor of the assay were thinned out.

B1: TPR 5TU (parent)
chain: GGAUCUUCUCGAUCUAACAAAAAAGACAAAUCUGCCACAAAGCUUGAGAGCAUCUUCGGAUGCAGAGGCGGCAGCCUUCGGUGGCGCGAUAGCGCCAACGUUCUCAACUAUGACACGCAAAACGCGUGCUCCGUUGAAUGGAGUUUAUCAUG

Variants of: B1
Assay: polymerase ribozyme fitness, log enrichment relative to wild type (log ratio); higher = more active; in vitro selection for triplet polymerase activity
Method in brief: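 Fitness is a logarithmic measure of how a genotype enriched relative to the wild type, with replicate averages weighted by inverse variance. The logarithm uses base 2, and enrichment came from Illumina sequencing of input and output libraries. Those libraries were PCR-built, transcribed mutants of each subunit of a heterodimeric triplet polymerase ribozyme, passed through one triplicate in vitro selection round that included frozen incubation at −7 °C, gel excision of extended constructs and streptavidin-bead capture. Genotypes were kept only if they had ≥10 input reads and ≥1 read per output.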

Variant	polymerase ribozyme fitness (log ratio)
A89C C93U G136C	≤ -4.2
U90G G126U A147U	-3.95
C87G U111G	≤ -4.2
C87U C118G	-1.33
C87U G88U	≤ -4.2
C87U C93G A121U C132A	≤ -4.2
A91C G152U	≤ -4.2
C87A G124U	≤ -4.2
U90A G92C A142G	≤ -4.2
C87G C105U A137C A150U	≤ -4.2
G88C G100C A106G U146C	≤ -4.2
C87U G117A	-0.356
C87G G152U	-3.57
A91U C108A C114A C129A U146A	≤ -4.2
C87A A138C	≤ -4.2
C87A U90G U134G	≤ -4.2
A91G U130G	≤ -4.2
C87U A91U A98G A138G G152A	≤ -4.2
C87A C125U A137U	≤ -4.2
C87U C96G A113U	-2.85
C87U C105G A121U A122U	-1.19
C87U C108U	-3.61
U90C A147U	-3.58
G86U U90G C103A A119C A121C A138C	≤ -4.2

Variant	polymerase ribozyme fitness (log ratio)
G86U G143A	-2.53
A91U A97G	-3.67
A89G A98U	-1.66
A91C C96A A120U A122C G143U	-4.07
C87U G152C	-3.17
G88U A91G	≤ -4.2
C87A G92U	0.159
A89G U146G C149G	-4.1
G88C U101C A113C U139G	≤ -4.2
C87U A106G	-0.549
G86U C105A	-2.68
C87U A137C	-3.99
C87U A137G	-1.81
G86U C108U	-4.14
A91G U139G	-3.56
G86U C149A	≤ -4.2
C87U A120G	-1.85
C87U C105G	-1.18
G88A A91C	≤ -4.2
C87A U151G	≤ -4.2
A89U A142C U146C A150U	-3.99
A91G U145A	-3.07
A91G U145G	-3.96
G88C A137U G143A	≤ -4.2

Variant	polymerase ribozyme fitness (log ratio)
A89G C131A	-2.5
G88U U130A A147C	≤ -4.2
C87U C116A	1.21
A91C A113G A138U	≤ -4.2
A89U G141C	-0.255
C87G G141C	-3.99
U90C U127C	≤ -4.2
G86U C93A G94A	-0.505
C87A A115C	-4.1
A89G G94A G100C	≤ -4.2
U90A C99U C103G G140A	≤ -4.2
G86U A142G	-2.35
A89U C93G A147U	-2.7
G86U G88U G94U A150U	≤ -4.2
A89G A122C	-1.77
A89U A121U	-0.72
G86U G88C A119C U127A U144G	≤ -4.2
C87U U145G	-1.51
C87U U145A	0.0527
A89U G143U	-2.38
C87A G141A	-3.89
C87A G141U	-3.64
G88U C96U G124C G136U	≤ -4.2
A91G A121U	-3.01

Variant	polymerase ribozyme fitness (log ratio)
A91C C125A U135C	≤ -4.2
A91C A150G	≤ -4.2
U90C C95A U102A C132A	≤ -4.2
G86U U102G A150U	-3.59
C87G U139A	≤ -4.2
C87G G140C	≤ -4.2
C87U G133U	-2.95
C87U A150G G152U	≤ -4.2
C87U G143U	-2.69
C87A C93G C114U G141C	≤ -4.2
A91C A142C	≤ -4.2
A91G G94A	-3.47
A91U A142U	-3.67
A91U A106U G117A G136U	≤ -4.2
A89C C96A A115G	-2.74
A89U G94C A98G A150G	-2.68
C87A C93U C95U G100A C116U A121G C129A U130G	≤ -4.2
G86U U101C C118U	-1.56
A89U C99G G126A C132G	-4.08
G88U C99U	-4.12
G88U C99A	-4.1
A91C C95U C103G C116G	≤ -4.2
C87U A107U	-3.34
C87A G112C C116G	≤ -4.2

Variant	polymerase ribozyme fitness (log ratio)
A89U C103U A106C G117A	-2.14
C87G G92C G126A	0.48
A89C G94C	-1.57
A89C C96U	-1.26
A89C A142G	-1.52
C87U A115U G140U	-4.19
A91U C99G	≤ -4.2
A89U	-0.292
A89G	-0.999
A89C	-0.82
C87U A150C	-3.7
A91C G126A	-4.03
A91G C131A A137C G143C	≤ -4.2
A91C G112C U146A	≤ -4.2
C87G C149U	≤ -4.2
U90C G92A C123A G126A A147C	≤ -4.2
A91G	-2.77
A91C	≤ -4.2
G86U U104G C116A	-2.52
C87U G92C	-0.38
G86U A120G C129A U145G	-4.13
C87A G133C U145C U146C	≤ -4.2
G88U G141U	-3.23
C87A A106U	-4.18

Variant	polymerase ribozyme fitness (log ratio)
A89C C95G	-3.24
A89C C95U	-1.49
C87U G140U	-3.68
C87U A122G	-1.83
A89G G124U	-1.93
U90G G140C	≤ -4.2
C87A U90C G117C	-3.77
C87U A98G A106G	-1.08
A91U A147G	≤ -4.2
C87U C114G	-2.79
C87U U90C U134A A138U G143A	≤ -4.2
A89U C93G	-3.68
A89U C93U	-1.6
C87G A142G	-4.14
G88A C118A A120G	≤ -4.2
C87A A91G	≤ -4.2
G86U G100U	≤ -4.2
G88U C149U	≤ -4.2
G88U G117U A142C	≤ -4.2
A91C A120G G126A	≤ -4.2
A89G C125A	-1.77
U90A G94U C95U C116G C118G C123G	≤ -4.2
A89U U109G	-0.917
A91C A97G U109C A142C	≤ -4.2

Variant	polymerase ribozyme fitness (log ratio)
A91G G143C	-3.43
G86U G140U	-3.83
C87G G94C C132G	≤ -4.2
G88A A106G	-3.55
A91C A120C	≤ -4.2
A89C C99U C114U	-2.63
G88A U144G	-3.35
C87U A142G	-0.623
G88A G124C	≤ -4.2
A89U A91U C116U	≤ -4.2
G88C G143C	-3.92
U90C C99U	≤ -4.2
A91G C93U	-3.88
A91G G92A C125G C129G A137G	≤ -4.2
A89G U111C	≤ -4.2
U90G G94U A106U	≤ -4.2
A89U A91U C93U C95A	≤ -4.2
G86U U90G A98U G143C	≤ -4.2
U90A A91C U102G U151G	≤ -4.2
A91G A98U	-3.95
A89U A150U	1.51
A89U A150G	-0.42
C87U A97U	-2.25
